# Test results reported in the nanobody polyreactivity screen of Harvey et al. (2022).
# Assay: yeast display, Sf9 membrane polyspecificity reagent, FACS + sequencing; frameworks hold sequencing errors
# Procedure, shortened: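 Polyreactivity labels are assigned by the sorting gate from which each nanobody was recovered. The gates were low and high (top ~1%), set on anti-HA fluorescence for expression and streptavidin fluorescence for reagent binding. Before sorting, galactose-induced (36–48 hours) yeast display cells were stained for 1 hour at 4 °C with 10% biotinylated, detergent-solubilized Sf9 membrane reagent.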
row,Sequence,polyreactivity (PSR sort gate)
1,QVQLVESGGGLVQAGGSLRLSCAGSGSIYSYNAMGWYRQAPGKERELVAAIDWSGGSTYYADSVKGRFTLSRDNAKNTVYLQMNSLKPEDTAVYYEYDYWGQGTQVTVSS,low polyreactivity
2,QVQLVESGGGLVQAGGSLRLSCAASGRIFYFYAMGWYRQAPGKERELVAAISTSGGSTYYADSVKGRFTISRDNAKNTVYLQMNSLKPEDTAVYYCAARFRYYGSEYDYWGQGTQVTVAS,low polyreactivity
3,QVQLVESGGGLVQAGGSLRLSCAASGRILASYAMGWYRQAPGKERELVAAISRSGGSTYYADSVKGRFTISRDNAKNTVYLQMNSLKPEDTAVYYCAAKYPQKTPVNSYGILDSWGQGTQVTVSS,high polyreactivity
4,QVQLVESGGGLVQAGGSLRLSCAASGFTFYSYAMGWYRQAPGKEREFVAAGSTYYADSVKGRFTISRDNAKNTVYLQMNSLKPEDTAVYYCAADPWIYVQSYGYWGQGTQVTVSS,low polyreactivity
5,QVQLVESGGGLVQAGGSLRISCAASGFTFRSYVMGWYRQAAGKEWELVAAISSRGSSTSYADSVKGRFTISRDNAKNTVYLQMNSLKPEDTAVYDCAPRLFWRGRKFAYWGQGTQVTVSS,high polyreactivity
6,QVQLVESGGGLVQAGGSRRLSCAASGRTFRNYAMGWYRQAPGKERELVAAINFSGDGTYYADSVKGRFTISRDNAKNTVYLQMNSLKPEDTAVYYCAADVEYYRDVPQQVYVSDDYWGQGTQVTVSS,low polyreactivity
7,QGQLVESGGGLVQAGGSLRLSCAASGSIFSLNSMGWYRQAPGKERELVAASGGGSTYYADSVKGRFTISRDNAKNTVYLQMNSLKTEDTAVYYCAGDQSFDYDFSHYYYWGQGTQVTVSS,low polyreactivity
8,QVQLVESGGGLVQAGGSLRLSCAASGFTFNTNAMGWYRQAPGKERELVAAITSSGGSTYYADSVKGRFTISRDNAKNTVYLQMNSLKPEDTAVYYCNADVTLRLWAYYYYRYNYWGQGTQVTVSS,low polyreactivity
9,QVQLVESGGGLVQAGGSLRLSCAASGFTFLYNVMGWYRQAPGKERELVAAISQSGTDTYYADSVKGRFTISRDNAKYTVYLQMNSLKPEDTAVYYCAVDVYFYYRHYGYWGQGTQVTVSS,low polyreactivity
10,QVQLVESGGGLVQAGGSLRLSCAASGRTFCSNAMGWYRQAPGKERELVARISWSGGSTYYADSVKGRFTISRDNAKNTVYLQMNSLKPEVTAVYYCAKYYPGRSAFSEGTYWGQGTQVTVSS,low polyreactivity
11,QFQLVESGGGLVQEGGSLRLSCAPSGSTFRFYAMGWYRQSPGKERELVAVISSAGSTNYADSVKGRFTISRDNAKNTVYLQMNSLKPEDTAVYYCAAYRRYSIYNYWGEGTQVTVSS,high polyreactivity
12,QVQLVESGGGLVQAGGSLRLSCAASGSIFRPYTMGWYRPAPGKERELVAGITSGGGTYYADSVKGRFTISRDNAKNTVYLQMNSLKPEDTAVYYCAADNWKTRSLVDYWGQGTEVTVSS,high polyreactivity
13,QVQLVESGGGLVQAGGSLRLSCAASGRIFFWYARGWYRQAPGKEWELVAGITSGGSTNYADSVKGRFTISRDNAKNTVYLQMNSLKPEDTAVYYCAKRSYRTHTYDYWGQGTQVTVSS,low polyreactivity
14,QVQLVESGGGLVQAGGSLRLSCAASGFTSRRYVMGWYRQAPGKERELVAAISSRGTSTYYADSVKGRFTISRDNAKNTVYLKMNSLKPEDTAVYYCAAVIRGRTRWLKYDYWGQGTQGTVSS,high polyreactivity
15,QVELVESGGGVVQAGGSLRLSCAASGYIFRAYAMGWYRQAPGKERELVAAISSRGGSKYYADSVKGRFTSSRDNAKNTVYLQMNSLIPEDTAVYYCAAAYRKPYIGYGYWGQGTQGTVSS,high polyreactivity
16,QVQLVESGGGLVQAGGSLRLSCAASGSTFLLNAMGWYRPAPGKERELVAAITWTGGSTYYADSVKGRFTISRDNAKNTVYLQMNILKPEDTAVYYCAAEHYEYWRELVTSEYDYWGKGTQVTVSS,low polyreactivity
17,QVQLVESGGGLVQAGGSLRLSCAASGSIFITYAMGWYRQAPGKERELVAAIRDSGDRTYYADSVKGRFTISRDNAKNTVYLQMNSLKPEDTAVYYCTARCQEPLKYDYSGQGTQVTVSS,low polyreactivity
18,QVQLVESGGGLVQAGGSLRLICAASGSIFSRNAMGWYRQAPGKERELVASISWSSDITNYADSGKGRFTISRDNAKNTVYLEMNSLKAEDTAVYYCNVDGLLGERFSWGYDYWRQGTQVTVSS,low polyreactivity
19,QVHLVESGGGLVQAGGSLRLTCAASGFIFQWYAMGWYRQAPGKERELVAAINSSGSTNYADSVKGRFTISRDNAKNSGYLQRNILKPEDTAVYYCAAHWRYGRKFDYWGQGTQVTVSS,high polyreactivity
20,QVQLVESGGGLVQAGGSLRLSCAASGRIFDLYAMGWYRQAPGKERELVAAITWRGGSTYYADSVKGRFTISRDNAKNTVYLQMNSLKPEDTAVYYCAARSYYISPWRFDYWGQGTQVTVSS,high polyreactivity
21,QVQLVESGGGLVQAGGSLRLSCAASGSTFHRYAMGWSRQAPGKERELVATINLNTGSTYADSVKGRFTISRDNAKNTVYVQMNSLKPEDTAVYYCAAYGRWPFTWYNYWGQGTQVTVSS,low polyreactivity
22,QVQLVESGGGLVQAGGSLRLSCAASGSTFRRNAMGWYRQAPGKERELVAAISRTAGSTYYADSVKGRFTISRDNAKNTVYLQMNSLKPEDTAVYYCNRRYVSTSGELDYWGQGTQVTVSS,high polyreactivity

row,Sequence,polyreactivity (PSR sort gate)
1,QVQLVESGGGLVQAGGSLRLSCAASGRTFDRYAMGWYRQAPGKERELVATISRRSSITYYADSVKGRFTISRDNAKNTVYLQMNRLKPEDTAVYYCAATSLYPTWRRGYDYWGQGTQVTVSS,high polyreactivity
2,QVQLVESGGGLVQAGGSLSLSCAASGSTFPEYVMGWYRQAPGKERELVAAITRRGGRTYYADSVKGRFTISRDNAKNTVYLQMNSLKPEDTEVYYCAAKSAVVVCMDSWGQGTQVTVSS,high polyreactivity
3,QVQLVESGGALVQAGGSLRLNCAASGRTFGYNAMGWYRQAPGKERELVAAITIGGSTNYADSVKWRFTISRDNAKNNGYLQMNSLLPEDTAVYYCAAYDTLLYWVEFYYWGQGTQVTVSS,low polyreactivity
4,QVQLVESGGGLVQAGGSLRLSCSASGITFTGYGMGWYRQAPGKERELVAAIRLRTGSTYYADSVKGRFTISRDNAKNTVYLQMNSLKPEDTAVYYCAKKWSSKYWGQGTQVTVSS,high polyreactivity
5,QVQLVESGGGLDQAGGSLRLSCAASGSIFGYYAMGWYRQAPGKERELVAAISWSDGSTYYADSVKGRFTISRDNAKNTVYLQMNSLKPEDTAVYSCAARFTPYITSDDGHYDYWGQGTEVTVSS,low polyreactivity
6,QVQLVESGGGLVQAGGSLRLSCAASGRTFYGYTMGWYRPAPGKERELVAAITYSGDSTYYADSVKGRFTISRDNAKNTVYLQLNSLKPEDTAVYYCNAVGRYPVYWWGYYYWGQGTQVTVSS,high polyreactivity
7,QVQLVESGGGLVQAGGSLRLSCAASGRTLRIYAMGWYRPAPGNERELVAAITGSGGSTDYADSVKGRFTISRDNAKNTVYLQMNILKPEDTAVYYCNAGKTIDYRDGVGYDHWGQGTQVTVSS,low polyreactivity
8,QVQLVESGGGLVQAGGSLRLSCAASGFTFWYNTMGWYRQAPGKERELVAAINRGGGRTYYADSVKGRFTISRDNAKNTVYLQMNSLKPEDTAVYYCAKKDYYSKVGGPQSEYDYWGQGTQVTVSS,low polyreactivity
9,QVQLVESGGGLVQAGGSLRLSCAASGRILVQNDMGWYRQEPGKERELVAAIRSDGSTSYADSVKGRFTISRDNAKNTVYLQMNSLKPEDTAFYYCAARIDWTGGEYDYWGQGTQVTVSS,low polyreactivity
10,QVQLVESGGGLVQAGGSLRLSCAASGRTFVNYAMGWYRQAPGKERELVAAITSDGSTSYADSVKGRFTISRDNAKNTVYLQMNSLKPEDTAVYFCAKDFFEHSPVSHTYSSSKYDYWGQGTQVTVSS,low polyreactivity
11,QVQLVESGGGLVQAGGSLRLSCAASGLIFYGNAMGWSRQAPGKERELVAAISRRGGRTYYADSVKGRFTISRDNAKNTVYLQMNSLKPEDTAVYYCDADVIYSGDYWGQGTQVTVSS,high polyreactivity
12,QVQLVESGGGLVQAGGSLRLSCAASGLIFYRYAMGWYRQAPGKERELVAAISRSGSSTYYADSVKGRFTISRDNAKNTFYLQINSLKPEDTAVYYCNAGYGWIWDDRGYWGQGTQVTVSS,high polyreactivity
13,QVQLVDSGGGLVQAGGSLRLSCAASGLTFYYYAMGWYRQAPGKESELVSAISATGGRTYYSDSVKGRFTISRDNAKNTVYLQMNSLKPEDTAVYYCAADTPYLRRRLGMDYWGQGTQVTVSS,high polyreactivity
14,QVHLVESGGGLVQAGGSLRLSCAASGGIFYPNAMGWYRQAPGKERELVAAISSGGGSTYYADSVKGRFTISRDNAKNTVYLQMNSLKPEDTAVYYCAASAYSLKSDVEYDYWGQGTLVTVSS,low polyreactivity
15,QVQLVESGGGLVQAGGSLRLSCAASGRIFNYYAMGWYRQAPGKERELVAAISARGGSTYYADSVKGRFTISRDNAKNTVYLQMNSLKPEDNAVYYCAKRLYYSYGKYLLGAYYYWGQGTQVTVSS,high polyreactivity
16,QVQLVESGGGLVQAGGSLRLSCAASGSIFKWNDMGWYRQSPGKERELVAAITWSGGRTYYADSVKGRFTISRDNAKNTVYLQMNSLKPEDTAVYYCAATQYRSDGWRYDYWGQGTQVTVSS,high polyreactivity
17,QVQLVESGGGLDQAGGSLRLSCAASGSTLGRNAMGWYRQAPGKERELVAAISSSSGRTYYADSVKGRFTISRDNAKNTVYLQMNSLKPEDTAVYYCAATHAVARPLEYDYWGQGTQVTVSS,low polyreactivity
18,QVQLEESGGCLVQAGGSLRLSCAASGITFVLYAMGWYRQAPGTERELVAAINIDGNTNYADSVKGRFTISRDNAKNTVYLQMNSLKPEDTAVYYCAATFVPAQSRYTCSKYDYWGQGTQVTVSS,low polyreactivity
19,QVQLVESGGGLVQAGGSLRLSCAASGRIFGYNAMGWYRQAPGKEREFVAAITYRGGSTYYADSVKGRFTISRDNAKTTVYLEMNSLKPEDTAVYYCASRVTQYPKYWGDYWGQGTQVTVSS,high polyreactivity
20,QVQLVESGGGLVQAGGSLRLSCAASGRIFDRNAMGWYRQAPGKERELVAAIDDSGGDTSYADSVKGRFTISRDTAKNTVYLQMNSLKPEDTAVYYCAAKRQYYQTGSQRSYPYDYWGQGTQVTVSS,low polyreactivity
21,QVQLVESGGGLVQAGGSLRLSCAASGITFGYYAMGWYRQAPGKERELVAAITWSGSSTYYADSVKGRFTISRDNAKNTVYLQMNSLKPEDTAVYYCAAEYSSHYAVWRGHSGYWGQGTQVTVSS,high polyreactivity
